Experiment: yeast display, Sf9 membrane polyspecificity reagent, FACS + sequencing; frameworks hold sequencing errors
In short: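 Polyreactivity labels are assigned by the sorting gate from which each nanobody was recovered. The gates were low and high (top ~1%), set on anti-HA fluorescence for expression and streptavidin fluorescence for reagent binding. Before sorting, galactose-induced (36–48 hours) yeast display cells were stained for 1 hour at 4 °C with 10% biotinylated, detergent-solubilized Sf9 membrane reagent.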

Sequence	polyreactivity (PSR sort gate)
QVQLEESGGGLVQAGGSLRLSCAASGRTFRINDMGWYRQAPGKERELVATINSTGSTNYADSVKGRFTISRDNAKNTVYLQMNSLKPEDTAVYYCNAYLYYYRYHYNYWGQGTQVTVSS	low polyreactivity
QVQLVESGGGLVQAGGSLRLSCAASGSIFSFYAMGWYRQAPGKERELVAAISWSGGSTYYADSVKGRFTISRDNAKNTVYLQMNSLKPEDTAVYYCAADYYYGTYDYWGQGTQVTVST	low polyreactivity
QVQLVESGGGLVQAGGSLRLSCAASGRIFVTYAMGWYRQEPGKERELVAAISASGGSTYSADSVKGRFTISRDNAKNTVYLQMNSLKPEDTAVYYCAASYRSSLRPWAEDGFWGQGTQVTVSS	high polyreactivity
QVQLVESGGGLVQAGGSLRLSCAASGITFAGYAMGWYRQAPGKERELVAAISRGGSTYYADSVKGRFTISRDNAKNTVYLQMNSLKPEDTAVYYCNTDDQQGYFTYTGWNYNYWGQGTQVTVSS	high polyreactivity
QVQLVESGGGLVQAGGSLRLSCAASGFIFSGYAMGWYRQAPGKERELVATISGSGGSTYYADSVKGRFTISRDNAKNTVYLQMNSLKPEDTAVYYCAARQRGGYGYWGQGTQVTVSS	high polyreactivity
QVQLVESGGGLVQAGGSRRLSCAASGRIFDTYTMGWYRQAPGKERELVAAITTGGSTYYADSVKGRFTISRDNAMNTVYLQMNSLKPEDTAVYYCAARYRSIIRYYYWGQGTQVTVSS	high polyreactivity
QFQLVESGGGLVQAGGSLRLSCAASGFTFYLYAMGWYRQAPGKERELVAAIRGSGGSTYYADSVKGRFTISRDTAKNSVYLQMNSLKPEDTEVYYCAADYKVSASWYYAYTFYYWGQGTQVTVSS	low polyreactivity
QVQLVESGGGLVQAGGSLRLSCAASGRIFSQYAMGWYRQAPGKERELVAAISYDDGITYYADSVKGRFTISRDNAKNTVYLQMNSLKPEDTAVYYCNADGSRRYNYWGQGTQVTVSS	low polyreactivity
QVHLVESGGGLVQAGVSLRLSCAAYVRIFGRNAMGWYRQAPGKEREFVAAITYSGTSTYYADSVKGRFTISRDNAKNTVYLQMNSLKREDTAVYYCNAQYLPSHVYGRYSSTFNYWGQGTQLTVSS	low polyreactivity
QVQLVESGGGLVQAGGSLRLSCAASGFTFVYYVMGWYRQAPGKERELVAAINAGGGSTYYADSVKGRFTISRDNAKNTVYLQMNSLKPEDTAVYYCNARVRVRLGRNWSSYDYWGQGSQVTVSS	high polyreactivity
QVQLVESGGGLVQAGGSLRLSCAASGYIFKVNSMGWYRPAPGKERELDADISSNSGSTRYADSVKARFTISRDNAKNTVYLQMNSLKQDDTAVYYCAADGRYWVKPGSPWDRSRYDYWGQGTQVTVSS	low polyreactivity
QVQLVESGGGLVQAGGSLRLSCAASGYIFAENAMGWYRQAPGKERELVATITYIGGSTHYADSVKGRFTISRDNAKNTVYLQMNSLKPEDTAVYYCNADNSTYYRSDFGYWGQGTQVTVSS	low polyreactivity
QVQLVESGGGLVQAGCSLRISCAASGRTFSVYTMGWYRQAPGKERELVAAIRGRGGSTYYADSVKGRFTISRDNAKIPVYLQMNSLKPEDTAVYYCAARASIFGATFDYWGQGTQVTVSS	high polyreactivity
QVQLVESGGCLVQAGGSLRLSCAASGFIIRYYAMGWYRQAPGKERELDAAITRGGSTYYADSVKGRFRISRDNAKNTVYLQMNSLNPEDTAVYYCAARLYTQYYYWGQGTQVNVSS	high polyreactivity
QVQLVESGGGLVQAGGSLRLSCAASGSIFRTYAMGWYRQAPGKEREWVAAISSTGGRTYYADSVKGRFTISRDNAKNTVYLQMNSLKPEDTAVYYCAKRYRYITYRYDYWGQGTQVTVSS	high polyreactivity
QVQLKERGGGLVQAGGSLRLSCAAIGPISRRSTMGWYRQAPGKERELVTDITRGTNTNYADSVKGRFTISRDNAKNTEYLQMNSLKPEDTAVYYCEAYGVLKPSRGDAVFHRYWGQGTQVTVSS	low polyreactivity
QVQLVESGGGLVQAGGSLRLSCAASGSIFAQYAMGWYRQAPGKERELVATISSVGSTNYADSVKGRFTISRDNAKNSVYLLMNSLKPEDTAVYYCNAVRSGWGYFYGLNSWGQGTQVTVSS	low polyreactivity
QVQLVESGGGLVQAGGSLRLSCAASGSTFAAYVMGWYRQAPGKERELVAAISTSGGRTYYADSVKGRFTISRDNAMNTVYLQMNSLIPEDTAVYYCAKKRINSRKYDYWGQGTQVNVSS	low polyreactivity
QVQLVESGGGLVQAGGSLRLSCAASGSTFGYYAMGWYRQAPGKEREFVAAITYGDGNTYYADSVKGRFTISRDNAKNTVYLQMNSLKPEDTAVYYCAKYYWAPTGAHGGYGYWGQGTQVTVSS	low polyreactivity
QVQLVESGGGLVQAGGSLRLSCAASGSTFKNNAMGWYRQATGKEREFVAGITRRGTSTYYADSVKGRFTISRDNAKNTVYLQMNSLKPEDTAVYYCAVGVYDYTGTYGYWGQGTQVTVSS	high polyreactivity
QVQLVESGGGLVQAGGSLRLSCAASGSTFQPYAMGWYRQAPGKEREFVATISGSAGSTYYADSVKGRFKISRDNAKNTVYLQMNSLKPEDTGVYYCNARPARKSLDYDYWGQGTQVTVSS	low polyreactivity
HVQLVESGGGLFQAGGSLRLICAASGSTFGFYAMGWYRQAPGKERELVAAISRRTGSTYYADSVKGRFTISRDNAKNTVYLQMNSLKPEDTAVYYCNTDQSQKTVGYDYWGQGTQVTVSS	high polyreactivity

Sequence	polyreactivity (PSR sort gate)
QVQLVESGRGLVQAGGSLRLRCASSGRTFSSYAMGWSRQAPGKARELVAAITKRGGNTYYADSVKGRFTISRDNAKNTVYLQMNSLNPEDTAVYYCAAGWERFRNYNYWGQVTQVTVSS	high polyreactivity
QVQLVESGGGLVQAGGSLRLSCAASGYIFPYNAMGWYRQAPGKERELVAAISASGGTTYYADSVKGRFTISRDNAKNTVYLQMNSLKPEDTAVYYCAASFAVTSGHHYEYWGQGTQVTVSS	high polyreactivity
QVQLVESGGGLVQAGGSLRLSCAASGSTLSSNAMGWYRQAPGKERELVAAINRRGGTYYADSVKGRFTISRDNAKNTVYLQMNSLKPEDTAVYYCAAASPYHEYDYWGQGTQVTVSS	low polyreactivity
QVQLVESGGGLVQAGGSLRLSCAASGSTFYFNAMGWYRQAPGKERELVAGIYSGGSTYYADSVKGRFTISRDNAKNTVYLQMNSLKTEDTAVYYCAATWLVERPFSYTEYGYWGQGTQVTVSS	low polyreactivity
QVQLVESGGGLVQAGGSLRLSCAASVSTFYRYTMVWYRQAPGKERELVAAITYRGGTTYYADSVKGRFTISRDNAKNTVYLQMNSLKPEDTAVYYCAAYSSLGYIMNYWGQGTQVTVSS	high polyreactivity
QVQLVESGGGLVQAGGSLRLSCAASGSIFFYAMGWYRQAPGKERELVADITYTGGSKYADSVKGRFTISRDYAKNTVYLQMNSLKPEDTAVYYCAKLDGGLFDYWGQGTQVTVSS	low polyreactivity
QVQLVESGGGLVQAGGSLRLSFAASGITFSLYVMGWYRQAPGKERELVAAISYRGGTTYYADSVKGRFTISRDNAKNTVYLQMNSLKPEDTAVYYCAARGSRDRQEAEYGYWGQGTQVTVSS	high polyreactivity
QVQLVESGGGLVQAGGSLRLSCAASGRIFFPYYTMGWYRQAPGKERELVAVISSSGSSTYYADSVKGRFTISRDNAKNTVYLQMNSLKPEDTAVYFCNAYGGVSTRLRGDYWGQGTQVTVSS	high polyreactivity
QVQLVESGGGLVQAGGSLRLSCAASGSTFGINAMGWYRQAPGKERELVAVIRAGGGRTYYADSVKGRFTISRDNAKNTVYLQMNSLKPEDTAVYYCAARYYSRYVSVYASSKTGYDYWGQGTQVTVSS	high polyreactivity
QVQLVESGGGLVQAGGSLRLSCAASGSTFLSNAMGWYRQAPGKERELVAGITSGTSTYYADSVKGRFTISRDNAKYTVYLQMNSLKPEDTAVYYCNADDAEVLYQYVEYDYWGQGTQVTVSS	low polyreactivity
QVQIVESGVGLVQAGGSLSLSCAASGIIIHSNAMGWYRQAPGKERELVAAITSSGGSKYYADSVKGRFTISRDNAKNTVYLQMNSLKPVDTAVYYCAVVTILVYRYVVPYDYWGHGTQVTVSS	high polyreactivity
QVQLGESGGGLVQAGGSLRLSCAASGSIFTFNTMGRYRQAPGKERELVATISSGGRTSYADSVKGRFTISRDNAKNTVYLQMNSLKPADTAVYYCNKGYYGYTYVESNYWGLGTQVTVSS	low polyreactivity
QVQLVESGGGLVQAGGSLRLSCAASGSIYLKYAMGWYRQAPGKERELVAAISSRGGSTYYADSVKGRFTISRDNAKNTVYLQMNSLKPEDTAVYYCAAKRWPGTDGYWGQGTQVTVSS	high polyreactivity
QVQLVESGGGLVQAGGSLRLSCAASGLPFYQYAMGWYRQAPGKERELVAGISSGGSTKYADSVKGRFTISRDNAKNTVYFQMNSLKPEDTAVYYCAARFYAFRKGYYYWGQGTQVTVSS	high polyreactivity
QVQLVESCVVLVQAGGSLRLSCAASGSIFGYYAMGWYRQAPGKERELVAAISDGGTITYYADSVKGRFTISRDHAKNTVYLQMNSLKPEVTAVYYCAARSPPRYYEHRFYYWGQGTQVTVSS	high polyreactivity
EVHLLESGGGLVQAGGSLRLSSAASGFTFACNAMGWYRQAPGKERELVAALTWGDNSTYYADSVKGRFTISRDNAKNTVYLQMNSLKQEDTAVYYCGARVTHWYYLFGYDYWGQGTQVTVSS	low polyreactivity
QVQLVESGGGLVQAGGSLRLSCAASGYIFGRNARGWYRQAQGKERELVAVISSRGSRTYYADSVKGRYTISRDNAKNTVYLQMNSLKPEDTAVYYCNAVMWWDWEYDFYYWGQGNQVTVSS	high polyreactivity
QVQLVDSAGGLVQAGGSLRLSCAASGITFGYYAMGWYRQAPGKERELVAAITSSGSTYYADSVKGRFTISRDNAKNTVYLQMNSLNPEDTAVYYCAARSWYSKYYYWGQGTQVTVSS	high polyreactivity
QVQLVESGGGLVQAGGSLRLSCAASGSIFLYNAMGWYRQAPGKERELVAAISRSSTSTYYSDSVKGRFTISRDNAKNTVYLQMNSLKPEDTAVYYCAARGRVTYWGQGTQVTVSS	high polyreactivity
QVQLVESGGGLVQAGGSLRLSCAASGFTFGVYTMGWYRQAPGKETELVASISWDGGSTYYADSVKGRFTISRDNAKNTVYLQMNSLKPEDTAVYYCAKGSSFYYGYDYWGQGTQVTVSS	low polyreactivity
QVQLVESGGGLVQAGGSLRLSCAASGFIFGSYAMGWSRQAPGKERELVDAITRGGGNTYYADSVKGRFTISRDNAKNTVYLQMNSLKPEDTAVYYCAAVWGKRGYYYWGQGTQVTVSS	high polyreactivity
